# Test results: the nanobody polyreactivity screen of Harvey et al. (2022)
# Experiment: yeast display, Sf9 membrane polyspecificity reagent, FACS + sequencing; frameworks hold sequencing errors
# How it was run: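 After 36–48 hours of galactose induction, yeast (Saccharomyces cerevisiae BJ5465) displaying a synthetic nanobody library were stained at 4 °C for 1 hour with 10% biotinylated, detergent-solubilized Sf9 membrane reagent. Streptavidin microbeads enriched the stained cells before FACS sorting into low and high (top ~1%) gates on anti-HA and streptavidin fluorescence. Each clone's polyreactivity label reflects its gate of origin.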
row,Sequence,polyreactivity (PSR sort gate)
1,QVQLVESGGGLVQAGGSLRLSCAASGSTFKRYAMGWYRQAPGKERELVAAISLSSGSTYYADSVKGRFTISRDNAKNTVYLQMNSLKPEDTAVYYCNAAKTYPDVYEYDYWGQGTQVTVSS,high polyreactivity
2,QVQLVESGGGLVQAGGSLRLSCAASGSTFKRYAMGWYRQAPGKERELVAANSASGGSTSYADSVKGRFTISRDNAKITVYLQMNSLTPEDTAVYYCAPYYWLYSSSYDYWGQGTQVTVSS,high polyreactivity
3,QVQLVESGGGLVQAGGSLRLSCAASGSTFKTYAMGWYRQAPGKERELVAAITSSGGRTYYADSVKGRFTISRDNAKNTVYLQMNSLKPEDTAVYYCAAVRRSYNQLDYWGQGTQVTVSS,high polyreactivity
4,QVQLVESGGGLVQAGGSLRLSCAASGSTFKTYTMGWYRQAPGKERELVAGITSGGSTSYADSVKGRFTISRDNAKNTVYLQMNSLKPEDTAVYYCAADTSYDSYEYWGQGTQVTVSS,low polyreactivity
5,QVQLVESGGGLVQAGGSLRLSCAASGSTFKVNAMGWYRQAPGKERELVAAISRGGSTYADSVKGRFTISRDNAKNTVYFQINSLKPEDTAVYYCAAKSRYFQPDEYYYWGQGTQVTVSS,high polyreactivity
6,QVQLVESGGGLVQAGGSLRLSCAASGSTFKVYAMGWYRQAPGKERELVATISKSGSTYADSVKGRFTISRDNAKNTVYLQMNSLKPEDTAVYYCAADLYTYPRTRRRAYGYWGQGTQVTVSS,high polyreactivity
7,QVQLVESGGGLVQAGGSLRLSCAASGSTFKWYTMGWYRQAPGNEREFVAAISSSGGRTYYADSVKGRFTISRDNAKNTDYLQMNCLKPEDTAVYFCAAGYLYQFRAATFGYWGQGTQVTVSS,high polyreactivity
8,QVQLVESGGGLVQAGGSLRLSCAASGSTFKYYAMGWYRQAPGKERELVAAISSGGSTYYADSVKGRFTISRDNAKNTVYLQMNSLKPEDTAVYYCAARGYYGKFSGSGYWGQGTQVTVSS,high polyreactivity
9,QVQLVESGGGLVQAGGSLRLSCAASGSTFKYYAMGWYRQAPGKERELVASITSGGSTYYADSVKGRFTISRDNAKNTVYLQMNSLKPEDTAVYYCNKRWITSYYTRYDYWGQGTQVTVSS,high polyreactivity
10,QVQLVESGGGLVQAGGSLRLSCAASGSTFKYYGMGWYRQAPGKERELVASISSSGTRTYYADSVKGRFTISRDNAKYTVYLQMNSLKPEDTAVYYCAADSYATYFLYDSWGQGTQVTVSS,low polyreactivity
11,QVQLVESGGGLVQAGGSLRLSCAASGSTFKYYVMGWYRQAPGKERELVAAISGRTGSTYYADSVKGRFTISRDNAKNTVYLQMNSLKPEDTAVYYCAKRGFLYWDHVSGFYRYDYWGQGTQVTVSS,low polyreactivity
12,QVQLVESGGGLVQAGGSLRLSCAASGSTFLAYTMGWYRQAPEKERELVADNTSNGGSTYYADSVKGRFTISRDNAKNTVYLQMNSLKPEDTAVYYCNTGSGAGITRPDDDFNYWGQGTQVTVSS,low polyreactivity
13,QVQLVESGGGLVQAGGSLRLSCAASGSTFLDNAMGWYRQAPGKERELVAVITASDTNTNYADSVKGRFTISRDNAKNTVYLQMNRLKPEDTAVYYCNADATYTSYDYWGQGTQVTVSS,low polyreactivity
14,QVQLVESGGGLVQAGGSLRLSCAASGSTFLGNAMGWYRQAPGKERELVATITGSSGSTYYADSVKGRFTISRDNAKNTVYLQMNSLKPEDTAVYYCNTVYNYWDGYDYWGQGSQVTVSS,low polyreactivity
15,QVQLVESGGGLVQAGGSLRLSCAASGSTFLGYAMGWYRQAPGKERELVAAITYSGGGTYYADSVKGRFTISRDNAKNTVYLQMNSLKPEDTAVYYCNADVSWSYSVYREYGMDYWGQGTQVTVSS,low polyreactivity
16,QVQLVESGGGLVQAGGSLRLSCAASGSTFLGYTMGWYRQAPGKERELVASITNSGSTDYADSVKGRFTISRDNAKNTVYLHMNSLKPEDTAVYYCAAQFYRYPSKNDYWGQGTQVTVSS,high polyreactivity
17,QVQLVESGGGLVQAGGSLRLSCAASGSTFLINAMGWYRQAPRKERELVATISSGGSTYYADSVKGRFTISRDNAKNTVYLQMNSLKPEDTAVYSCAADPDRTAYDYWGQGTQVTVSS,low polyreactivity
18,QVQLVESGGGLVQAGGSLRLSCAASGSTFLKYTMGWYRQAPRKDRELVAGITRSSRSTYYADSVKGRFTISRDNAKYTVYLQMNSLKPEDTAVYYCAATVYLYTDLAYYWFGYWGQGTQVTVAS,high polyreactivity
19,QVQLVESGGGLVQAGGSLRLSCAASGSTFLLNAMGWYRQAPGKERELVAAITWNGGSTYYADSVKGRFTISRDNAKNTVYLQMNSLKPEDTAVYYCAADWSWQWRYGYDYWGQGTQVTVSS,low polyreactivity
20,QVQLVESGGGLVQAGGSLRLSCAASGSTFLNNAMGWYRQAPGKERELVASIRYSSARTYYADTVKGRFTISRDNAKNTVYLQMNSLKPEDTAVYYCAADRWVGYRVYKYDYWGQGTQVTVSS,high polyreactivity
21,QVQLVESGGGLVQAGGSLRLSCAASGSTFLPNAMGWYRQAPGKERELVATITFDGGSTYYADSVKGRFTISRDNAKNTVYLQMNSLKPEDTAVYYCNTVELYWRGYDYWGQGTQVTVSS,high polyreactivity
22,QVQLVESGGGLVQAGGSLRLSCAASGSTFLRYAMGWARQAPGKERELVARISGGGTTYYADSVKGRFTISRDNAKNTVYLQMNSLKPEDTAVYYCAARAIYWSRYDYWGQGTQVTVSS,high polyreactivity

row,Sequence,polyreactivity (PSR sort gate)
1,QVQLVESGGGLVQAGGSLRLSCAASGSTFLSYAMGWYRQAPGHERELVAAISIAGSTYYADSVKGRFTISRANAKNTVYLQMHSLKPEDTAVDYCRRYYRIYDYWGQGTQVTVSS,low polyreactivity
2,QVQLVESGGGLVQAGGSLRLSCAASGSTFLSYAMGWYRQAPGKERELVAAISWSGGRTYYADSVKGRFTISRDNAKNTVYLQMNSLKPEDTAVYYCAARHVPFTKHEYEYWGQGTQVTVSS,low polyreactivity
3,QVQLVESGGGLVQAGGSLRLSCAASGSTFLTNAMGWYRQAPGKERELVAAIRTSGGSTYYADSVKGRFTISRDNAKNTVYLQMNSLKPEDTAVYYCAASYRRRRFSEYYYWGQGTQVTVSS,high polyreactivity
4,QVQLVESGGGLVQAGGSLRLSCAASGSTFLTYAMGWYRQAPGKERELVAAISIAGSTYYADSVKGRFTISRDNAKNTVYLQMNSLKPEDTAVYYCAADIFERGPVPDRHNGYDYWRQGTQVTVSS,low polyreactivity
5,QVQLVESGGGLVQAGGSLRLSCAASGSTFLVYAMGWYRQAPGKERELVARINWRGSSTYADSVKGRFTISRDNAKNTVYLQMNSLKPEDTAVYYCNADSYRYYHPTYIYDYWGQGTQVTVSS,low polyreactivity
6,QVQLVESGGGLVQAGGSLRLSCAASGSTFLWYAMGWYRQAPGKERELVATISGSGGSTYYADSVKGRFTISRDNAKNTVYLQMNSLKPEDTAVYYCARDTLGGTSLGDYWGQGTQVTVSS,high polyreactivity
7,QVQLVESGGGLVQAGGSLRLSCAASGSTFLWYTIGWYRQAPGKERELVADISSGGTTYYADSVKGRFTISPDNAKNTVYFQMNSLKPEDTAVYFCAKTRWPYDRWKYAFGYWGQGTQVTVSS,high polyreactivity
8,QVQLVESGGGLVQAGGSLRLSCAASGSTFLYYAMGWSRQAPGKEMELVAAISGSGGSTYYADSVKGRFTISRDNAKNTVYLQMNSLKPEDTAVYYCNAVARRHGLGPYDYWGQGTQVTVSS,high polyreactivity
9,QVQLVESGGGLVQAGGSLRLSCAASGSTFLYYAMGWYRQAPGKERELVAAITWSGGRTYYADSVKGRFTISRDNAKNTVYLQMNSLKPEVTAVYYCNKAYPWLRSTALNPGLYDYWGQGTQVTVSS,high polyreactivity
10,QVQLVESGGGLVQAGGSLRLSCAASGSTFLYYAMGWYRQAPGKERELVARITTRVGRTYYADSVKGRFTISRDNAKNTVYLQMNSLKPEDTAVYYCAAYPDYSYYYWGQGTQVTVSS,high polyreactivity
11,QVQLVESGGGLVQAGGSLRLSCAASGSTFLYYAMGWYRQAPGKERELVARITTRVGRTYYADSVKGRFTISRDNAKNTVYLQMNSLNPEDTAVYYCAAYPDYSYYYWGQGTQVTVSS,high polyreactivity
12,QVQLVESGGGLVQAGGSLRLSCAASGSTFLYYAMGWYRQAPRKESELVATITDGGSTNYSDSVKGRFTISRDNAKNTVDLQMNSLKPEDTAVYYCAKRQWRPTYRYGYWGQGTQVTVSS,low polyreactivity
13,QVQLVESGGGLVQAGGSLRLSCAASGSTFLYYAMGWYRQEPGKEREFVASISGSGGSTNYADSVKGRFTISRDNAKNTVYLQMNSLKPEDTAVYYCAKEYVTEFQGYYYWGQGTQVTVSS,low polyreactivity
14,QVQLVESGGGLVQAGGSLRLSCAASGSTFNANAMGWYRQAPGKERELVAGISSGGSTYADSVKGRFTISRDNAKNTVYLKMNSLKPEDTAVYYCNADFYSWYPTFYWYDYWGQGTQVTVSS,high polyreactivity
15,QVQLVESGGGLVQAGGSLRLSCAASGSTFNAYAMGWYRQAPGKERELVADISFSGGTYYADSVKGRFTISRDNAKNTVYLQMNSLKPEDTAVYYCSAESRWRSSAGGYYYWGQGTQVTVSS,low polyreactivity
16,QVQLVESGGGLVQAGGSLRLSCAASGSTFNDYVMGWYRQAPGKERELVAAISRSGGSTYYADSVKGRFTISRDNAKNTVYLQMNSLNPEDTAVYYCAAASPGPWRYDYWGQGTQVTVSS,high polyreactivity
17,QVQLVESGGGLVQAGGSLRLSCAASGSTFNGYAMGWSRQAPGKERELVAAISWSSGSTYYADSVKGRFTISRDNAKNTVYLQMNSLKPEDTAVYYCNKYYGYHKIKEYDYWGQGTQVTVSS,high polyreactivity
18,QVQLVESGGGLVQAGGSLRLSCAASGSTFNGYAMGWYRQAPGKERELVAAISKRGGSTYYADSVKGRFTISRDNEKNTVYLQMNSLKPEDTAVYYCAARNPTQYLMDYWGQGTQVTVSS,high polyreactivity
19,QVQLVESGGGLVQAGGSLRLSCAASGSTFNGYAMGWYRQAPGKERELVAAISSDGGSTYYADSVKGRFTISRDNAKNTVYLQMNSLKPEYTAVYYCAALVYVSGYGYYYWGQGTQVTVSS,high polyreactivity
20,QVQLVESGGGLVQAGGSLRLSCAASGSTFNGYAMGWYRQAPGKERELVAAISWRGGSTYYADSVKGRFTISRDNAKNTVYLQMNSLKPEDTAVYYCNTLLYYGHRYYYWGQGTQVTVSS,high polyreactivity
21,QVQLVESGGGLVQAGGSLRLSCAASGSTFNKYTMGWYRQAPGKEREFVAAISRIGGSTYYADSVKGRFTISRDNAKNTVYLQMNSLKPEDTAVYYCATGVRPLRKKPVEFYHWGQGTQVTVSS,low polyreactivity
